Experimental data published in patent US20040081651A1 (Biogen, published 2004).

B1: chAQC2 (murine-human chimeric AQC2, blocked light chain; pAND099 + pAND102) (antibody, V domains shown)
VH: DVKVVESGGGLVKPGGSLKLACAASGFSFSRYTMSWVRQIPEKRLEWVATISGGGHTYYLDSVKGRFTISRDNAKNTLYLQMSSLRSEDTAMYYCTRGFGDGGYFDVWGQGTTVTVSS
VL: QIVLTQFPALMSASPGEKVTMTCSASSSVNHMFWYQQKPKSSPKPWIYLTSNLASGVPARFSGSGSGTSYSLTISSMEAEDAATYYCQQWSGNPWTFGGGTKLEIK
notes: also called Chimera
B2: monoclonal antibody AQC2 (mAQC2) (antibody, mouse IgG1, V domains shown)
VH: DVKVVESGGGLVKPGGSLKLACAASGFSFSRYTMSWVRQIPEKRLEWVATISGGGHTYYLDSVKGRFTISRDNAKNTLYLQMSSLRSEDTAMYYCTRGFGDGGYFDVWGQGTTVTVSS
VL: QIVLTQFPALMSASPGEKVTMTCSASSSVNHMFWYQQKPKSSPKPWIYLTSNLASGVPARFSGSGSGTSYSLTISSMEAEDAATYYCQQWSGNPWTFGGGTKLEIK
notes: Hybridoma ATCC PTA3273; also called murine AQC2

Columns and labels:
[1] = target: T1, human VLA-1 (α1β1 integrin) on K562 cells transfected with the α1 integrin subunit (human, UniProt P56199 29-1179; P05556 21-798); assay: FACS on human α1-transfected K562 cells
T1 construct: whole, on cells; also called huVLA-1; K562-α1

[2] = target: T2, α1β1 integrin (VLA-1) in lysate of α1-transfected K562 cells (human, UniProt P56199 29-1179; P05556 21-798); assay: electrochemiluminescence; inhibition of α1β1 (K562-α1 lysate) binding to type IV collagen beads (±0.002 in r14)
[3] = target: T3, human α1-I domain-GST fusion protein (human, UniProt P56199 151-364); assay: electrochemiluminescence; inhibition of α1 I domain-GST binding to type IV collagen beads (±0.007 in r14)
T3 construct: Expressed in E. coli; not shown: glutathione S-transferase of vector pGEX4t-i (Pharmacia), with a thrombin cleavage site at the junction

[4] = target: T1, human VLA-1 (α1β1 integrin) on K562 …; assay: FACS of VLA-1-expressing K562α1 cells stained with conditioned medium of transfected 293-EBNA cells; mean MFI normalized to chAQC2 blocked; average of two transfections
[5] = target: T3, human α1-I domain-GST fusion protein; assay: ELISA; competition with biotinylated mAQC2 (competitor) for immobilized α1 I domain-GST
[6] = target: T3, human α1-I domain-GST fusion protein; assay: ELISA on immobilized α1 I domain-GST (±0.058 in r14)
[7] = target: T2, α1β1 integrin (VLA-1) in lysate of …; assay: electrochemiluminescence; inhibition of α1β1 (K562-α1 lysate) binding to type IV collagen beads (±0.014 in r12)
[8] = target: T3, human α1-I domain-GST fusion protein; assay: ELISA on immobilized α1 I domain-GST (±0.015 in r12)
[9] = target: T3, human α1-I domain-GST fusion protein; assay: electrochemiluminescence; inhibition of α1 I domain-GST binding to type IV collagen beads (±0.011 in r12)

Binder | EC50 [1] | IC50 [2] | IC50 [3] | Relative MFI [4] | IC50 [5] | EC50 [6] | IC50 [7] | EC50 [8] | IC50 [9]
B1 | 0.25 nM | 0.071 nM | 0.027 nM | 1 relative to chAQC2 blocked | 30 nM | 0.176 nM | – | – | –
B2 | – | – | – | – | 38 nM | – | 0.0726 nM | 0.061 nM | 0.029 nM
